Substitutions are numbered along the chain they refer to. Names and notes keep the numbering of the source. Each block holds one binder with its values, some of them ahead of it.
Legend:
[1] = biological target: T1, rHuman EGF R/Fc Chimera, CF (R&D Systems Cat#344-ER) (human, UniProt P00533 25-645); assay: MSD Multispot ECL, antigen spotted on plate, Fab in solution; blank spot of the row 240
T1 construct: Bought recombinant Fc chimera; also called epidermal growth factor receptor; Fc part of the bought chimera not given

[2] = biological target: T2, rHuman HGF R/c-MET/Fc Chimera, CF (R&D Systems Cat#358-MT/CF) (human, UniProt P08581 25-932); assay: as above
T2 construct: Bought recombinant Fc chimera; also called HGF R/Fc; hepatocyte growth factor receptor; Fc part of the bought chimera not given
T2 sequence (P08581 25-932, change not shown): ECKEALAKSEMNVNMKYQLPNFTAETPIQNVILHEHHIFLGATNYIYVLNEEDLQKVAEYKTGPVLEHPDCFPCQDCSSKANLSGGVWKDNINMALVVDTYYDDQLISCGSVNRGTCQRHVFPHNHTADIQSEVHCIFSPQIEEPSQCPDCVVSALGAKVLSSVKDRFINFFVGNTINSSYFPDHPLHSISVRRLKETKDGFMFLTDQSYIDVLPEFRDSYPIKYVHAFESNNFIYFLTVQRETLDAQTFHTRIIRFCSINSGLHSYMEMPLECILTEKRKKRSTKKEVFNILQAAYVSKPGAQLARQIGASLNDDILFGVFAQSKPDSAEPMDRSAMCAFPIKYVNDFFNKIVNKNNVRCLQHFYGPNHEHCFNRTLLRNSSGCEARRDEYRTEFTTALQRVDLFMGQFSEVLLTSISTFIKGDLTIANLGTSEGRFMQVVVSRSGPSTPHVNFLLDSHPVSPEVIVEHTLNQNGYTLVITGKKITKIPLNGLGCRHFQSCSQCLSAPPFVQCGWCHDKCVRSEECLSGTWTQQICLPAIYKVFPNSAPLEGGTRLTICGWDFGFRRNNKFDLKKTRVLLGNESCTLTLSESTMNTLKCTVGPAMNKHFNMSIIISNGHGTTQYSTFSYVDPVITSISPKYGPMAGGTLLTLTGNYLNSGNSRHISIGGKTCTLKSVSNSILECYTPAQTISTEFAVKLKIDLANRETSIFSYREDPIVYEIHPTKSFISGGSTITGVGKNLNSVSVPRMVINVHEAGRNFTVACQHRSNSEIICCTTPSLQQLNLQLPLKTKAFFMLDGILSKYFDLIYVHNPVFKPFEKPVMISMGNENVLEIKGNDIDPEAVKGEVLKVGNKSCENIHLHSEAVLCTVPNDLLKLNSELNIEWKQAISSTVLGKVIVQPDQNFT

[3] = biological target: T3, rHuman Notch-1/Fc Chimera, CF (R&D Systems Cat#3647-TK) (human, UniProt P46531 19-526); assay: as above
T3 construct: Bought recombinant Fc chimera; Fc part of the bought chimera not given

[4] = biological target: T4, rHuman P-Cadherin/Fc Chimera, CF (R&D Systems Cat#861-PC) (human, UniProt P22223 108-654); assay: as above
T4 construct: Bought recombinant Fc chimera; Fc part of the bought chimera not given

[5] = biological target: T5, rHuman Erythropoietin R/Fc Chimera, CF (R&D Systems Cat#963-ER) (human, UniProt P19235 25-250); assay: as above
T5 construct: Bought recombinant Fc chimera; also called EPO R; EPO R/Fc; Fc part of the bought chimera not given
T5 sequence (looked up): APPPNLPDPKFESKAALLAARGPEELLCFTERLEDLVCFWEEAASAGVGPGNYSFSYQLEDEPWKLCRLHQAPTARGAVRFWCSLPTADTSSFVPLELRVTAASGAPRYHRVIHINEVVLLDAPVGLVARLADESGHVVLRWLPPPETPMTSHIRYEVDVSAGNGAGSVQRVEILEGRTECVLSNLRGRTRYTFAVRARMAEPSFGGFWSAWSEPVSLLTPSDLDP

[6] = biological target: T6, Recombinant Human DLL4 (R&D Systems Cat#1506-D4/CF) (human, UniProt Q9NR61 27-524); assay: as above
T6 construct: Bought recombinant protein; also called delta-like protein 4; Delta-like 4

[7] = biological target: T1, rHuman EGF R/Fc Chimera, CF (R&D …); assay: MSD Multispot ECL, antigen spotted on plate, Fab in solution; blank spot of the row 424
[8] = biological target: T2, rHuman HGF R/c-MET/Fc Chimera, CF (R&D …); assay: as above
[9] = biological target: T3, rHuman Notch-1/Fc Chimera, CF (R&D …); assay: as above
[10] = biological target: T4, rHuman P-Cadherin/Fc Chimera, CF (R&D …); assay: as above
[11] = biological target: T5, rHuman Erythropoietin R/Fc Chimera, CF …; assay: as above
[12] = biological target: T6, Recombinant Human DLL4 (R&D Systems …); assay: as above
[13] = biological target: T7, Recombinant Human DLL4 (delta-like protein 4) (human, UniProt Q9NR61 27-524); assay: ELISA, DLL4 coated on plate
T7 construct: Bought recombinant protein (R&D Systems Cat#1506-D4/CF); also called rHuman DLL4

[14] = biological target: T8, rHuman Notch-1/Fc Chimera (human, UniProt P46531 19-526); assay: ECL (MSD) multispot assay, antigen spotted; blank spot of this row 424
T8 construct: R&D Systems Cat#3647-TK; not shown: Fc of the bought R&D Systems chimera

rHuman CD44/Fc Chimera [15] = biological target: T9, rHuman CD44/Fc Chimera (human, UniProt P16070 21-220); assay: as above
T9 construct: not shown: Fc of the bought R&D Systems chimera

[16] = biological target: T10, rHuman P-Cadherin/Fc Chimera (human, UniProt P22223 108-654); assay: as above
T10 construct: R&D Systems Cat#861-PC; not shown: Fc of the bought R&D Systems chimera

[17] = biological target: T11, rHuman Erythropoietin R/Fc Chimera (human, UniProt P19235 25-250); assay: as above
T11 construct: also called EPO R; EPO R/Fc; not shown: Fc of the bought R&D Systems chimera
T11 sequence (looked up): T5 sequence (looked up)

[18] = biological target: T7, Recombinant Human DLL4 (delta-like …); assay: as above
rHuman ErbB2/Fc Chimera [19] = biological target: T12, rHuman ErbB2/Fc Chimera (human, UniProt P04626 23-652); assay: as above
T12 construct: not shown: Fc of the bought R&D Systems chimera

rHuman EGF R/Fc Chimera [20] = biological target: T13, rHuman EGF R/Fc Chimera (human, UniProt P00533 25-645); assay: as above
T13 construct: not shown: Fc of the bought R&D Systems chimera

[21] = biological target: T7, Recombinant Human DLL4 (delta-like …); assay: ECL (MSD) multispot binding assay; value equals DLL4 signal over blank of Table 91
[22] = biological target: T14, Recombinant Human DLL4 (R&D Systems Cat#1506-D4/CF) (human, UniProt Q9NR61 27-524); assay: ECL (MSD) multispot binding assay, antigen spotted on the plate, Fab in solution; blank spot of this well 213
T14 construct: Bought recombinant protein; also called rHuman DLL4; delta-like protein 4

[23] = biological target: T15, rHuman P-Cadherin/Fc Chimera, CF (R&D Systems Cat#861-PC) (human, UniProt P22223 108-654); assay: as above
T15 construct: Bought reagent; Fc part of the bought chimera not given

[24] = biological target: T16, rHuman Erythropoietin R/Fc Chimera, CF (R&D Systems Cat#963-ER) (human, UniProt P19235 25-250); assay: as above
T16 construct: Bought reagent; also called EPO R/Fc; EPO R; Fc part of the bought chimera not given
T16 sequence (looked up): T5 sequence (looked up)

[25] = biological target: T8, rHuman Notch-1/Fc Chimera; assay: ECL (MSD) multispot assay, antigen spotted; blank spot of this row 284
rHuman CD44/Fc Chimera [26] = biological target: T9, rHuman CD44/Fc Chimera; assay: as above
[27] = biological target: T10, rHuman P-Cadherin/Fc Chimera; assay: as above
[28] = biological target: T7, Recombinant Human DLL4 (delta-like …); assay: as above
rHuman ErbB2/Fc Chimera [29] = biological target: T12, rHuman ErbB2/Fc Chimera; assay: as above
rHuman EGF R/Fc Chimera [30] = biological target: T13, rHuman EGF R/Fc Chimera; assay: as above
[31] = biological target: T10, rHuman P-Cadherin/Fc Chimera; assay: ECL (MSD) multispot assay, antigen spotted; blank spot of this row 236
[32] = biological target: T7, Recombinant Human DLL4 (delta-like …); assay: as above
rHuman EGF R/Fc Chimera [33] = biological target: T13, rHuman EGF R/Fc Chimera; assay: as above
[34] = biological target: T8, rHuman Notch-1/Fc Chimera; assay: ECL (MSD) multispot assay, antigen spotted; blank spot of this row 223
[35] = biological target: T10, rHuman P-Cadherin/Fc Chimera; assay: as above
rHuman EGF R/Fc Chimera [36] = biological target: T13, rHuman EGF R/Fc Chimera; assay: as above

ELISA (Signal-Noise) [13]: 0.02
ECL signal [31]: 362
ECL signal [32]: 8890
ECL signal (rHuman EGF R/Fc Chimera [33]): 805
ECL signal-to-blank ratio [21]: 37.7
B5: Fab VH5-51_IGHD5-18*01>3_IGHJ4*01 G100K/G104T S84V & V3-4_IGLJ1*01 (Fab, V domains shown)
VH: EVQLVQSGAEVKKPGESLKISCKGSGYSFTSYWIGWVRQMPGKGLEWMGIIYPGDSDTRYSPSFQGQVTISADKSISTAYLQWVSLKASDTAMYYCARRKYSYTYDYFDYWGQGTLVTVSS
VL: QTVVTQEPSFSVSPGGTVTLTCGLSSGSVSTSYYPSWYQQTPGQAPRTLIYSTNTRSSGVPDRFSGSILGNKAALTITGAQADDESDYYCVLYMGSGISYVFGTGTKVTVL
notes: Fab made in E. coli (heavy chain vector with CH1, His6 and Flag tags; lambda CL vector)

ECL signal [34]: 410
ECL signal [35]: 320
ECL signal (rHuman EGF R/Fc Chimera [36]): 864
B6: Fab VH5-51_IGHD5-18*01>3_IGHJ4*01 G100K/G104T S84L & V3-4_IGLJ1*01 (Fab, V domains shown)
VH: B5 VH with V84L
VL: B5 VL
notes: as for B5

Second part, the binder before the results:

B1: Fab VH5-51_IGHD5-18*01>3_IGHJ4*01 G100K/G104T (KT) & V3-4_IGLJ1*01 (Fab, V domains shown)
VH: B5 VH with V84S
VL: B5 VL
notes: Fab made in E. coli; VH cloned into Plasmid A (CH1, His6 and Flag tags), lambda VL into Plasmid E (lambda CL); also called H:KT & L:wt; KT double mutant
ECL signal [1]: 915
ECL signal [2]: 936
ECL signal [3]: 507
ECL signal [4]: 346
ECL signal [5]: 497
ECL signal [6]: 45100
ECL signal [7]: 852
ECL signal [8]: 838
ECL signal [9]: 543
ECL signal [10]: 319
ECL signal [11]: 554
ECL signal [12]: 36400

B2: Fab VH5-51_IGHD5-18*01>3_IGHJ4*01 G100K/G104T & V3-4_IGLJ1*01 (Fab, V domains shown)
VH: B5 VH with V84S
VL: B5 VL
notes: Fab made in E. coli (heavy chain vector with CH1, His6 and Flag tags; lambda CL vector); also called KT; H:KT
ELISA (Signal-Noise) [13]: 0
ECL signal [14]: 543
ECL signal (rHuman CD44/Fc Chimera [15]): 579
ECL signal [16]: 319
ECL signal [17]: 554
ECL signal [18]: 36400
ECL signal (rHuman ErbB2/Fc Chimera [19]): 1100
ECL signal (rHuman EGF R/Fc Chimera [20]): 852
ECL signal-to-blank ratio [21]: 85.9

B3: Fab VH5-51_IGHD5-18*01>3_IGHJ4*01 G100K/G104T (KT) & V3-4_IGLJ1*01 (Fab, V domains shown)
VH: B5 VH with V84S
VL: B5 VL
notes: Tested as a Fab expressed in E. coli; The heavy chain variable region was cloned into Plasmid A (CH1 constant region, His6 and Flag tags); The lambda light chain variable region was cloned into Plasmid E (lambda CL); also called H:KT & L:wt; KT double mutant
ECL signal [22]: 32700
ECL signal [23]: 226
ECL signal [24]: 421

B4: Fab VH5-51_IGHD5-18*01>3_IGHJ4*01 G100K/G104T D109A & V3-4_IGLJ1*01 (Fab, V domains shown)
VH: B5 VH with V84S, D109A
VL: B5 VL
notes: as for B5
ELISA (Signal-Noise) [13]: 0
ECL signal [25]: 443
ECL signal (rHuman CD44/Fc Chimera [26]): 538
ECL signal [27]: 406
ECL signal [28]: 21800
ECL signal (rHuman ErbB2/Fc Chimera [29]): 1100
ECL signal (rHuman EGF R/Fc Chimera [30]): 791
ECL signal-to-blank ratio [21]: 76.8

Reference: US20120316071A1 (published 2012)
